Series [1] has as its target CFHR2/1-2 (N-terminal SCRs 1-2 of CFHR2) (human). Put plainly: SEC-MALS; static light scattering (miniDawn TREOS, Optilab T-rEX) with size exclusion chromatography on Superdex 200 or Superdex 75; proteins purified by Ni2+-chelate chromatography, deglycosylated, non-reduced. On the technique in general: In gel filtration, larger molecules generally elute earlier.
The target of another series is N-biotinylated C3b (UniProt P01024). Put plainly: SPR; Biacore T200, 25°C; N-biotinylated C3b captured on a streptavidin-coated CM3 chip (520 RU); factor H or CFHR2 6.25–3200 nM in HBS-EP (10 mM HEPES pH 7.4, 150 mM NaCl, 50 µM EDTA, 0.005% P20), 30 µl/min; 1:1 model with mass transport term, KD from kinetic rate constants; one CFHR2 dimer regarded as one molecule.
Series [2] deals with the molecule itself. Put plainly: SEC-MALS; static light scattering (miniDawn TREOS, Optilab T-rEX) with size exclusion chromatography on Superdex 200 or Superdex 75; proteins purified by Ni2+-chelate chromatography, deglycosylated, non-reduced.
Another series has as its target T1, C3d (UniProt P01024 1002-1303).
T1 construct: C3d, cleavage fragment of complement C3; source: bought: Complement Technology
Put plainly: ELISA; competition: C3b or C3dg (methods; C3d in results) 5 µg/ml immobilised; constant CFHR2 (5 µg/ml, 0.07 µM) and increasing factor H (5–50 µg/ml, 0.033–0.33 µM); factor H detected with factor H/1-4 antiserum, CFHR2 with mAb A72. As to conditions: both partners purified. Background: In an ELISA, binding on a coated surface is turned into a signal by an enzyme label.

In the next series the target is T2, C3dg (UniProt P01024 955-1303).
T2 construct: C3dg, cleavage fragment of complement C3; cloned with the printed primer pair; source: E. coli, pET200/D-Topo expression system, purified (Ni-NTA Superflow Cartridge), dialyzed against DPBS
Put plainly: ELISA; C3b, C3c, C3dg or C3d (each 142 nM) coated on MaxiSorp plates; CFHR2 or factor H (each 0.07 µM) or CFHR2 fragments in equimolar amounts; detected with CFHR1 and factor H antisera. The note with it: both partners purified.

The text below walks through data of publication PMC3832495, “Human Factor H-Related Protein 2 (CFHR2) Regulates Complement Activation” (PLoS ONE, 2013).

A word on the stoichiometry N: it is the number of molecules, sites or subunits per partner or assembly. Usually Kd stands for a measure of binding affinity in units of concentration.

T1 sequence (P01024 1002-1303): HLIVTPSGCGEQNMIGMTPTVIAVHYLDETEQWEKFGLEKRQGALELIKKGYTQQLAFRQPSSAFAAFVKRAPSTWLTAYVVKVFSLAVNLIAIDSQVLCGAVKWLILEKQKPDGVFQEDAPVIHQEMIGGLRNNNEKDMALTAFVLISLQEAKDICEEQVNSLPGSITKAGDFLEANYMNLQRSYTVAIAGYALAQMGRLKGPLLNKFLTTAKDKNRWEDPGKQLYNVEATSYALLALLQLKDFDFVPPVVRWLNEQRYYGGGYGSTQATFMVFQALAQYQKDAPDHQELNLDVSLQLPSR
T2 sequence (P01024 955-1303): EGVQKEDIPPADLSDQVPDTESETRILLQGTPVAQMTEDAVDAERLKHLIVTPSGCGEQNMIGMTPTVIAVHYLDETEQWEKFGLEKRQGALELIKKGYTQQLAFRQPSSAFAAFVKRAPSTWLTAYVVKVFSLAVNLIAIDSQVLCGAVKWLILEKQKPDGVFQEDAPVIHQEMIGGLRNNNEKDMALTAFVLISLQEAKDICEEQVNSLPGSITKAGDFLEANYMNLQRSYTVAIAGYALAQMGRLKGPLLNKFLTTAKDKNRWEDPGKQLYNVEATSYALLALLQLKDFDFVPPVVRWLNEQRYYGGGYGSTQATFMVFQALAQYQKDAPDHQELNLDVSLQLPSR

“CFHR2/1-2 (N-terminal SCRs 1-2 of CFHR2) (domain or fragment)” showed a stoichiometry N in series [1] of 2.
In the series with N-biotinylated C3b, “Factor H (from UniProt P08603 19-1231) (natural protein)” came in with a Kd of 570 nM. This lies in the sub-micromolar range.

B1: Human factor H-related protein 2 (CFHR2), recombinant full length (natural protein, UniProt P36980 19-270, looked up)
chain: EAMFCDFPKINHGILYDEEKYKPFSQVPTGEVFYYSCEYNFVSPSKSFWTRITCAEEGWSPTPKCLRLCFFPFVENGHSESSGQTHLEGDTVQIICNTGYRLQNNENNISCVERGWSTPPKCRSTISAEKCGPPPPIDNGDITSFLLSVYAPGSSVEYQCQNLYQLEGNNQITCRNGQWSEPPKCLDPCVISQEIMEKYNIKLKWTNQQKLYSRTGDIVEFVCKSGYHPTKSHSFRAMCQNGKLVYPSCEEK
notes: Complement factor H-related protein 2 (CFHR2), human, four SCR domains; Secreted from Pichia; Several glycosylated forms; also called CFHR2 homodimer; CFHR2 dimer
In the case of B1, in series [2], the “stoichiometry N” value stood at 2. The binding result with C3d and with C3dg was “binds” in each case. The molecule further yielded a Kd with N-biotinylated C3b of 4200 nM.
